Measured values from the supplement of paper PMC9170038.

Test system: MS2 coat protein
Assay: apparent KD of MS2 coat protein; designed switch direction (-1 OFF switch, 1 ON switch): -1; higher = weaker reporter binding
Method in brief: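 Transcription of designed RNA switches on Illumina chips was done by stalled E. coli RNA polymerase. SNAP-549-labelled MS2 coat protein was then titrated in doubling steps from 0.7 or 1.5 nM to 3 µM, with steps of 0.8–1.5 h at the lowest and 10–20 min at the highest concentration. The per-design median over clusters of curve-fitted normalised fluorescence is reported as apparent KD.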

[1] = input ligand: microRNA oligo, concentration not stated
[2] = Eterna round: R95, input ligand: microRNA oligo, concentration not stated
[3] = Eterna round: R95, input ligand: FMN 200 uM
[4] = Eterna round: R95, input ligand: none

Sequence	apparent KD of MS2 coat protein (input ligand: FMN 200 uM)	apparent KD of MS2 coat protein (input ligand: none)	apparent KD of MS2 coat protein [1]	apparent KD of MS2 coat protein [2]	apparent KD of MS2 coat protein [3]	apparent KD of MS2 coat protein [4]
GCUCAACAUGAGGAUCACCCAUGUCAGGAUAUGCGAAUUUCAUCAAAAGAUGAAAUUUGCAGAAGGGACUGAGC [Omei Ex1 A31] (Eterna round: R97, puzzle: Exclusion 1)	27.2 nM	22 nM	–	–	–	–
GCUCCAGGAGGAUAUGCAUUCGAAAACAUGAGGAUCACCCAUGUAGGUGUCCACGUGCGAGCAGAAGGCCUAAAAC [Riqu] (Eterna round: R97, puzzle: Exclusion 5)	286 nM	646 nM	–	–	–	–
GCUGCGCGCUGUCGGGCGUCUGGUCUUGGAGGGAUAGACACAUGAGGAUCACCCAUGUUUCGGGUGUUCUUUCUAUA [JR_Sensorv2_tov2_Sub1512] (Eterna round: R96, puzzle: Sensor v2, turn-off variant 2)	187 nM	183 nM	118 nM	–	–	–
GCUGGACGAGGAUAUGCAUUCGUGCUUCGGCACGUAAGGUCACAUGAGGAUCACCCAUGUAGAAGGUGUCCAGC [E2/6-B2] (Eterna round: R97, puzzle: Exclusion 2)	24.1 nM	18.4 nM	–	–	–	–
GCUGGUCGAGGAUAUACAAUCGUGCUUCGGCACGUAAGGUCACAUGAGGAUCACCCAUGUAGAAGGUGACCAGC [E2/2-B1] (Eterna round: R97, puzzle: Exclusion 2)	57.7 nM	20.7 nM	–	–	–	–
GCUGGUCGAGGAUAUACAUGAGGAUCACCCAUGUGGUUACGUGACGAUAGUCACGAAUGUAGAAGGCGACCAGC [E3/4-A1] (Eterna round: R97, puzzle: Exclusion 3)	2200 nM	295 nM	–	–	–	–
GCUGGUCGAGGAUAUGCAUAUACUGGAUACAGUGGAAGGUCACAUGAGGAUCACCCAUGUAGAAGGCGACCAGC [EX2 #36] (Eterna round: R97, puzzle: Exclusion 2)	634 nM	527 nM	–	–	–	–
GCUUCGGCAGGAUAUACAAUGAAGUUGAGAAAUCGGCUUCGACAUGAGGAUCACCCAUGUAGAAGGGUUGAAGU [-26.3, -24 kcal, A 32% 3, 3 bis] (Eterna round: R97, puzzle: Exclusion 2)	36.3 nM	48.6 nM	–	–	–	–
GCUUCUGGGCAAGGAUAUCCUGCGCUGUUCUGGUUCGUGUCUGUCACAUGAGGAUCACCCAUGUGGGAGAAGGUGCCUGUGGCG [Design 67] (Eterna round: R96, puzzle: Exclusion NG 2)	20.9 nM	24.8 nM	17 nM	–	–	–
GCUUGAGCUGUGAGGAUAUUUCGAGUGAAAGCUUGAGAGAAGGCACAUGAGGAUCACCCAUGUAAGGUUCGAGU [-26, -23.9 kcal, A 28%, 1bis-1bis] (Eterna round: R97, puzzle: Brourd's mod of Exclusion 4)	13.6 nM	13.2 nM	–	–	–	–
GCUUGUAGAGGAUAUACGAGGGCCCGAGCGGAUAACACCGCACAUGAGGAUCACCCAUGUAGAAGGCUACCACC [Riquinza] (Eterna round: R96, puzzle: Exclusion 2)	331 nM	27.9 nM	19.1 nM	–	–	–
GCUUGUAGAGGAUAUACGAGGGCCCGAGCGGAUAACACCGCACAUGAGGAUCACCCAUGUAGAAGGCUACCACC [Riquinza] (puzzle: Exclusion 2)	–	–	–	20.8 nM	–	–
GCUUGUGGGCAAGGAUAUCCUACGCUGUUCUGGUUCGUGUCUGUCACAUGAGGAUCACCCAUGUGGGAGAAGGUGCCUUUGGUG [Design 63] (Eterna round: R96, puzzle: Exclusion NG 2)	13.7 nM	16.2 nM	12.7 nM	–	–	–
GCUUUUCUUUUCCUUUCUUACAUGAGGAUCACCCAUGUUUCUUGUCGUGCUCGCGUUGCUCGUCUGUCUGUCUGUUG [salish99_TOv1_r3_077(!)] (puzzle: Sensor v3, turn-off variant 1)	–	–	–	35.1 nM	44.4 nM	50.8 nM
GGAACGACAGGAUAUACAUGAGGAUCACCCAUGUGAGGAAGAGUAAAGUGUGAAGGAGGUAGAAGGGUCAAGAA [AK-MS2ROC-r4-exclusion3-3] (Eterna round: R97, puzzle: Exclusion 3)	63.6 nM	38.8 nM	–	–	–	–
GGAAGACAUGAGGAUCACCCAUGUAAGGAUAUCGGAGGUAAGGGAGGAAGGAGAUAGGCGAGAAGGUACAGGUG [JR_Exclu1_Sub094] (puzzle: Exclusion 1)	–	–	–	35.5 nM	47.2 nM	53 nM
GGAAUACAUGAGGAUCACCCAUGUAAGGAUAUGCUGAAUAACACGGAAUAAUCGUGCAGCAGAAGGUACAAAGG [Mat - Mod of my Eli Mod D45] (puzzle: Exclusion 1)	–	–	–	86.3 nM	–	–

Sequence	apparent KD of MS2 coat protein (input ligand: FMN 200 uM)	apparent KD of MS2 coat protein (input ligand: none)	apparent KD of MS2 coat protein [1]	apparent KD of MS2 coat protein [2]	apparent KD of MS2 coat protein [3]	apparent KD of MS2 coat protein [4]
GGACAACAUGAGGAUCACCCAUGUCAGGAUAUGACGGCGUCGGCGAAAGCGGAGGCGGUCAGAAGGGACGGUAA [AK-MS2ROC-r4-exclusion1-10.1] (Eterna round: R97, puzzle: Exclusion 1)	115 nM	51.9 nM	–	–	–	–
GGACUGAAGCUAGGAUAUCCCGUGUGAUCACGAGGAGAAGGAGCGCACGGGUAGUCAACAUGAGGAUCACCCAUGUACAGUCCA [Laditiqu] (Eterna round: R96, puzzle: Exclusion NG 1)	50.1 nM	20.6 nM	15.4 nM	–	–	–
GGAGAGGUAGGAUAUGGACCUUAGAACAUGAGGAUCACCCAUGUAGGACCACAUGAUUUGCGAGAAGGACCAGUCC [AK-MS2ROC-r4-exclusion5-7] (Eterna round: R97, puzzle: Exclusion 5)	363 nM	655 nM	–	–	–	–
GGAGCCUUAGGAUAUACAUGAGGAUCACCCAUGUGAUGUCGAAGCAAGGGUCUCCUAGGUAGAAGGAAGACAAU [Eternabot (L1) Solution 90] (Eterna round: R97, puzzle: Exclusion 3)	19.4 nM	17.9 nM	–	–	–	–
GGAGUUAGAGAGGAUAUGGAGGAGAGGCCAAUUCCAGAAGGUUCAACAUGAGGAUCACCCAUGUAUUUUCCUCA [AK-MS2ROC-r4-exclusion6-2] (Eterna round: R97, puzzle: Exclusion 6)	25.6 nM	33.8 nM	–	–	–	–
GGAUAAAACCGAGGAUAUACGUAUCACUAACGAGUAGAAGGCGGACAUGAGGAUCACCCAUGUGAGUUCUCAAUAAGAAACACG [Prohibition 64 - Jieux - Exclusion NG 1] (Eterna round: R96, puzzle: Exclusion NG 1)	519 nM	174 nM	85.1 nM	–	–	–
GGAUAAAACUGAGGAUAUACGUAUCACUAACGAGUAGAAGGCAGACAUGAGGAUCACCCAUGUGAGUUCUCAAUAAGAAACACG [Prohibition 65 - Jieux - Exclusion NG 1] (Eterna round: R96, puzzle: Exclusion NG 1)	74.9 nM	51.2 nM	43.5 nM	–	–	–
GGAUAUAAGGAAGGAUAUGAGCGCAACUGACGAUCAGAAGGUCCACAUGAGGAUCACCCAUGUGAUCUAUCAAUAUUAUACAUG [Prohibition 94 - Jieux - Exclusion NG 1] (Eterna round: R96, puzzle: Exclusion NG 1)	264 nM	115 nM	52.9 nM	–	–	–
GGAUAUAGGCGAGGAUAUACGCACCACUAACUAGUAGAAGGCGCACAUGAGGAUCACCCAUGUGAUUUCUCAAUAUGAUACACG [Prohibition 71 - Jieux - Exclusion NG 1] (Eterna round: R96, puzzle: Exclusion NG 1)	218 nM	183 nM	107 nM	–	–	–
GGAUCGAAUGUGAGGAUAUGCUGGUCCUUGGAUCAGCAGAAGGCACAUGAGGAUCACCCAUGUGAUACCGAUCC [Eli bmx4 4.70] (Eterna round: R97, puzzle: Brourd's mod of Exclusion 4)	255 nM	381 nM	–	–	–	–
GGAUCGAGUGUGAGGAUAUGCUGGUCCUUGGAUCAGCAGAAGGCACAUGAGGAUCACCCAUGUGAAUACGGUCC [JL bmx4 3.15] (puzzle: Brourd's mod of Exclusion 4)	–	–	–	23.8 nM	–	–
GGAUGAGAGCAGGAUAUCUUAUAAAUGUAUGAAAGAGAAGGGCUCACAUGAGGAUCACCCAUGUGGUCCUAGAU [jl-ex6-4.73 jandersonlee mod] (Eterna round: R97, puzzle: Exclusion 6)	280 nM	35.9 nM	–	–	–	–
GGAUUACAUGAGGAUCACCCAUGUGAGGAUAUCGAUGUCCAGUAAUACGUGCGGGACUCGAGAAGGCACUUGGA [salish99-ex1-70] (Eterna round: R96, puzzle: Exclusion 1)	432 nM	96.3 nM	80.7 nM	–	–	–
GGAUUUACUGAGGAUAUUGCAUCACCCGACUGAUAAGAAGGCAGAACAUGAGGAUCACCCAUGUGGGUACUCAA [Bingo-Bango-5] (Eterna round: R97, puzzle: Exclusion 6)	95 nM	105 nM	–	–	–	–
GGAUUUCGAGGAUAUACACGCAAAUAGGUGUAUCCUUUAGCACAUGAGGAUCACCCAUGUAGAAGGCGGGUACU [Eternabot (L1) Solution 19] (Eterna round: R97, puzzle: Exclusion 2)	136 nM	150 nM	–	–	–	–
GGCACACAUGAGGAUCACCCAUGUCAGGAUAUGUGGCGAUCGUCGAUAGACGAUAGCCACAGAAGGGACAGGCC [Mat - Exclusion 1 - Eli Mod - D22] (Eterna round: R97, puzzle: Exclusion 1)	110 nM	69.9 nM	–	–	–	–
